Values of other authors, collected in patent publication US20230279355A1, “METHOD FOR THE IN VITRO OR EX VIVO AMPLIFICATION OF STEM CELLS OF BROWN OR BEIGE ADIPOCYTES” (CENTRE NATIONAL DE LA RECHERCHE SCIENTIFIQUE, priority 2020, published 2023).

Test system: UCP1
Details: described in the literature

B1: Epidermal Growth Factor (protein, UniProt P01133 23-1207, looked up)
Pro-epidermal growth factor: PQHWSCPEGTLAGNGNSTCVGPAPFLIFSHGNSIFRIDTEGTNYEQLVVDAGVSVIMDFHYNEKRIYWVDLERQLLQRVFLNGSRQERVCNIEKNVSGMAINWINEEVIWSNQQEGIITVTDMKGNNSHILLSALKYPANVAVDPVERFIFWSSEVAGSLYRADLDGVGVKALLETSEKITAVSLDVLDKRLFWIQYNREGSNSLICSCDYDGGSVHISKHPTQHNLFAMSLFGDRIFYSTWKMKTIWIANKHTGKDMVRINLHSSFVPLGELKVVHPLAQPKAEDDTWEPEQKLCKLRKGNCSSTVCGQDLQSHLCMCAEGYALSRDRKYCEDVNECAFWNHGCTLGCKNTPGSYYCTCPVGFVLLPDGKRCHQLVSCPRNVSECSHDCVLTSEGPLCFCPEGSVLERDGKTCSGCSSPDNGGCSQLCVPLSPVSWECDCFPGYDLQLDEKSCAASGPQPFLLFANSQDIRHMHFDGTDYGTLLSQQMGMVYALDHDPVENKIYFAHTALKWIERANMDGSQRERLIEEGVDVPEGLAVDWIGRRFYWTDRGKSLIGRSDLNGKRSKIITKENISQPRGIAVHPMAKRLFWTDTGINPRIESSSLQGLGRLVIASSDLIWPSGITIDFLTDKLYWCDAKQSVIEMANLDGSKRRRLTQNDVGHPFAVAVFEDYVWFSDWAMPSVMRVNKRTGKDRVRLQGSMLKPSSLVVVHPLAKPGADPCLYQNGGCEHICKKRLGTAWCSCREGFMKASDGKTCLALDGHQLLAGGEVDLKNQVTPLDILSKTRVSEDNITESQHMLVAEIMVSDQDDCAPVGCSMYARCISEGEDATCQCLKGFAGDGKLCSDIDECEMGVPVCPPASSKCINTEGGYVCRCSEGYQGDGIHCLDIDECQLGEHSCGENASCTNTEGGYTCMCAGRLSEPGLICPDSTPPPHLREDDHHYSVRNSDSECPLSHDGYCLHDGVCMYIEALDKYACNCVVGYIGERCQYRDLKWWELRHAGHGQQQKVIVVAVCVVVLVMLLLLSLWGAHYYRTQKLLSKNPKNPYEESSRDVRSRRPADTEDGMSSCPQPWFVVIKEHQDLKNGGQPVAGEDGQAADGSMQPTSWRQEPQLCGMGTEQGCWIPVSSDKGSCPQVMERSFHMPSYGTQTLEGGVEKPHSLLSANPLWQQRALDPPHQMELTQ
modifications: Pro-epidermal growth factor
expression of UCP1: able to inhibit the expression of UCP1
